# B1: HDV Ribozyme (parent)
# chain: GGCCGGCAUGGUCCCAGCCUCCUCGCUGGCGCCGGCUGGGCAACAUUCCGAGGGGACCGUCCCCUCGGUAAUGGCGAAUGGGACCCA
# Variants of: B1
# Test: self-cleavage, relative activity (ratio to wild type); higher = more cleavage; co-transcriptional
row,Variant,self-cleavage
1,GGCCGGCAUGGUCCCAGCCUCCUCGUUGGCGCCGGGUGGGCAACAUUCCGAGGGGACCGUCCCCUCGGUAAUGGCGAAUGGGACCCA,0.162
2,GGCCGGCAUGGUCCCAGCCUCCUCGUUGGCGCCGGAUGGGCAACAUUCCGAGGGGACCGUCCCCUCGGUAAUGGCGAAUGGGACCCA,0
3,GGCCGGCAUGGUCCCAGCCUCCUCGUUGGCGCCGGCUGGGCAACAUUCCGAGGGGACCGUCCCCUCGGUAAUGGAGAAUGGGACCCA,0.154
4,GGCCGGCAUGGUCCCAGCCUCCUCGUUGGCGGCGGCUGGGCAACAUUCCGAGGGGACCGUCCCCUCGGUAAUGGCGAAUGGGACCCA,0.125
5,GGCCGGCAUGGUCCCAGCCUCCUCGUUGGCGUCGGCUGGGCAACAUUCCGAGGGGACCGUCCCCUCGGUAAUGGCGAAUGGGACCCA,0.799
6,GGCCGGCAUGGUCCCAGCCUCCUCGUUGGCGACGGCUGGGCAACAUUCCGAGGGGACCGUCCCCUCGGUAAUGGCGAAUGGGACCCA,0.256
7,GGCCGGCAUGGUCCCAGCCUCCUCGUUCGCGCCGGCUGGGCAACAUUCCGAGGGGACCGUCCCCUCGGUAAUGGCGAAUGGGACCCA,0.19
8,GGCCGGCAUGGUCCCAGCCUCCUCGUUGGCGCCGGCUGGGCAACAUUACGAGGGGACCGUCCCCUCGGUAAUGGCGAAUGGGACCCA,0.917
9,GGCCGGCAUGGUCCCAGCCUCCUCGUUGGCGCCGGCUGGGCAACAUUGCGAGGGGACCGUCCCCUCGGUAAUGGCGAAUGGGACCCA,1.07
10,GGCCGGCAUGGUCCCAGCCUCCUCGUUGGCGCCGGCUGGGCAACAUUUCGAGGGGACCGUCCCCUCGGUAAUGGCGAAUGGGACCCA,1.01
11,GGCCGGCAUGGUCCCAGCCUCCUCGUUGGCGCCGGCUGGGCAACAUUCCGAGGGGACGGUCCCCUCGGUAAUGGCGAAUGGGACCCA,0.831
12,GGCCGGCAUGGUCCCAGCCUCCUCGUUGGCGCCGGCUGGGCAACAUUCCGAGGGGACAGUCCCCUCGGUAAUGGCGAAUGGGACCCA,1.03
13,GGCCGGCAUGGUCCCAGCCUCCUCGUUGGCGCCGGCUGGGCAACAUUCCGAGGGGACUGUCCCCUCGGUAAUGGCGAAUGGGACCCA,1.16
14,GGCCGGCAUGGUCCCAGCCUCCUCGUUGGCGCCGGCUGGGUAACAUUCCGAGGGGACCGUCCCCUCGGUAAUGGCGAAUGGGACCCA,1.06
15,GGCCGGCAUGGUCCCAGCCUCCUCGUUGGCGCCGGCUGGGCAACAUUCCGAGGGGACCGUCCCCUUGGUAAUGGCGAAUGGGACCCA,1.02
16,GGCCGGCAUGGUCCCAGCCUCCUCGUUGGCGCCGGCUGGGCAACAUUCCGAGGGGACCGUCCCCUCGGUAAUGGCGAAUGGGACCAA,0.99

row,Variant,self-cleavage
1,GGCCGGCAUGGUCCCAGCCUCCUCGUUGGCGCCGGCUGGGCAACAUUCCGAGGGGACCGUCCCCUCGGUAAUGGCGAAUGGGACCUA,0.831
2,GGCCGGCAUGGUCCCAGCCUCCUCGUUGGCGCCGGCUGGGCAACAUUCCGAGGGGACCGUCCCCUCGGUAAUGGCGAAUGGGACCGA,1.14
3,GGCCGGCAUGGUCCCAGCCUCCUCGUUGGCGCCGGCUGGGCAACAUUCCGAGGGGACCGUCCCCUCGGUAAUGGCGAAUGGGACCCC,0.953
4,GGCCGGCAUGGUCCCAGCCUCCUCGUUGGCGCCGGCUGGGCAACAUUCCGAGGGGACCGUCCCCUCGGUAAUGGCGAAUGGGACCCU,1
5,GGCCGGCAUGGUCCCAGCCUCCUCGUUGGCGCCGGCUGGGCAACAUUCCGAGGGGACCGUCCCCUCGGUAAUGGCGAAUGGGACCCG,1.04
6,GGCCGGCAUGGUCCCAGCCUCCUCGUUGGCGCCGGCUGGGCAACAUUCCGAGGGGAUCGUCCCCUCGGUAAUGGCGAAUGGGACCCA,1.05
7,GGCCGGCAUGGUCCCAGCCUCCUCGUUGGCGCCGGCUGGGCAACAUUCCGAGGGGACCGUCCCGUCGGUAAUGGCGAAUGGGACCCA,1.1
8,GGCCGGCAUGGUCCCAGCCUCCUCGUUGGCGCCGGCUGGGCAACAUUCCGAGGGGACCGUCCCAUCGGUAAUGGCGAAUGGGACCCA,0.979
9,GGCCGGCAUGGUCCCAGCCUCCUCGUUGGCGCCGGCUGGGCAAUAUUCCGAGGGGACCGUCCCCUCGGUAAUGGCGAAUGGGACCCA,1.01
10,GGCCGGCAUGGUCCCAGCCUCCUCGUUGGCGCCGGCUGGGCAAAAUUCCGAGGGGACCGUCCCCUCGGUAAUGGCGAAUGGGACCCA,1.03
11,GGCCGGCAUGGUCCCAGCCUCCUCGUUGGCGCCGGCUGGGCAACAUUCCGAGGGGACCGUGCCCUCGGUAAUGGCGAAUGGGACCCA,1.19
12,GGCCGGCAUGGUCCCAGCCUCCUCGUUGGCGCCGGCUGGGCAACAUUCCGAGGGGACCGUCCUCUCGGUAAUGGCGAAUGGGACCCA,0.943
13,GGCCGGCAUGGUCCCAGCCUCCUCGUUGGCGCCGGCUGGGCAACAUUCCGAGGGGACCGUCCACUCGGUAAUGGCGAAUGGGACCCA,0.969
14,GGCCGGCAUGGUCCCAGCCUCCUCGUUGGCGCCGGCUGGGCAACAUUCCGAGGGGACCGUCCCCUCGGUAAUGGCGAAUGGGAACCA,1.15
15,GGCCGGCAUGGUCCCAGCCUCCUCGUUGGCGCCGGCUGGGCAACAUUCCGAGGGGACCGUCCCCUCGGUAAUGGCGAAUGGGAUCCA,1.05
16,GGCCGGCAUGGUCCCAGCCUCCUCGUUGGCGCAGGCUGGGCAACAUUCCGAGGGGACCGUCCCCUCGGUAAUGGCGAAUGGGACCCA,0.307
